Legend:
[1] = target: T1, human neonatal Fc receptor (hFcRn) (human, UniProt P55899 24-290; P61769 21-119); assay: phage ELISA pH 6
T1 construct: Biotinylated in the ELISA, Octet and yeast assays; also called human FcRn; huFcRn
Protocol: (§1) Approximately 100 μL of biotinylated human FcRn at 2 μg/mL was added to the wells of MAXISORP™ plates coated with 10 μg/mL streptavidin. After washing with PBS plus 0.05% Tween 20 (PBST) five times, phage from the overnight cultures in MES buffer at pH 6.0 or pH 7.4 were added to the plates and incubated at room temperature for 1 hr. A horseradish peroxidase (HRP)-conjugated anti-M13 antibody was used to detect the binding phage, and the plates were scored by a microtiter plate reader using a wavelength in the visible range.
(§2) Binding was assessed by a quantitative enzyme-linked immunoadsorbent assay (ELISA). The ELISA scores reflect binding affinity, with higher scores meaning higher affinity. Typically, scores higher than about 3˜5 indicate binding above background. For library L5, the insertions are between the N169 and G170 according to the numbering in FIG. 2. For libraries 6A and 6B, the insertions are between L143 and T144 according to the numbering in FIG. 2.

[2] = target: T1, human neonatal Fc receptor (hFcRn); assay: phage ELISA pH 7.4
Protocol: as §1, §2
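Also: higher score means stronger binding and above about 3 to 5 exceeds background.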

ELISA score [1] | ELISA score [2] | Binder
54.9 | 0.6 | L5 isolate with insertion SEQ ID NO: 439 (other) EPKSCDKTHTCPPCPAPELLGGPSVFLFPPKPKDTLMISRTPEVTCVVVDVSHEDPEVKFNWYVDGVEVHNAKTKPREEQYNSTYRVVSVLTVLHQDWLNGKEYKCKVSNKALPAPIEKTISKAKGQPREPQVYTLPPSRDELTKNQVSLTCLVKGFYPSDIAVEWESNGGCHHKQDQCGGGQPENNYKTTPPVLDSDGSFFLYSKLTVDKSRWQQGNVFSCSVMHEALHNHYTQKSLSLSPGK
51.3 | 0.2 | L5 isolate with insertion SEQ ID NO: 450 (other) EPKSCDKTHTCPPCPAPELLGGPSVFLFPPKPKDTLMISRTPEVTCVVVDVSHEDPEVKFNWYVDGVEVHNAKTKPREEQYNSTYRVVSVLTVLHQDWLNGKEYKCKVSNKALPAPIEKTISKAKGQPREPQVYTLPPSRDELTKNQVSLTCLVKGFYPSDIAVEWESNGGCQTSMKNCGGGQPENNYKTTPPVLDSDGSFFLYSKLTVDKSRWQQGNVFSCSVMHEALHNHYTQKSLSLSPGK
46.8 | 3.6 | L5 isolate with insertion SEQ ID NO: 463 (other) EPKSCDKTHTCPPCPAPELLGGPSVFLFPPKPKDTLMISRTPEVTCVVVDVSHEDPEVKFNWYVDGVEVHNAKTKPREEQYNSTYRVVSVLTVLHQDWLNGKEYKCKVSNKALPAPIEKTISKAKGQPREPQVYTLPPSRDELTKNQVSLTCLVKGFYPSDIAVEWESNGGCMHSPHACGGGQPENNYKTTPPVLDSDGSFFLYSKLTVDKSRWQQGNVFSCSVMHEALHNHYTQKSLSLSPGK
54.2 | 0.7 | L5 isolate with insertion SEQ ID NO: 443 (other) EPKSCDKTHTCPPCPAPELLGGPSVFLFPPKPKDTLMISRTPEVTCVVVDVSHEDPEVKFNWYVDGVEVHNAKTKPREEQYNSTYRVVSVLTVLHQDWLNGKEYKCKVSNKALPAPIEKTISKAKGQPREPQVYTLPPSRDELTKNQVSLTCLVKGFYPSDIAVEWESNGGCSRVFKYCGGGQPENNYKTTPPVLDSDGSFFLYSKLTVDKSRWQQGNVFSCSVMHEALHNHYTQKSLSLSPGK
50.3 | 0.4 | L5 isolate with insertion SEQ ID NO: 453 (other) EPKSCDKTHTCPPCPAPELLGGPSVFLFPPKPKDTLMISRTPEVTCVVVDVSHEDPEVKFNWYVDGVEVHNAKTKPREEQYNSTYRVVSVLTVLHQDWLNGKEYKCKVSNKALPAPIEKTISKAKGQPREPQVYTLPPSRDELTKNQVSLTCLVKGFYPSDIAVEWESNGGCVHNDKLCGGGQPENNYKTTPPVLDSDGSFFLYSKLTVDKSRWQQGNVFSCSVMHEALHNHYTQKSLSLSPGK
50.5 | 1 | L5 isolate with insertion SEQ ID NO: 452 (other) EPKSCDKTHTCPPCPAPELLGGPSVFLFPPKPKDTLMISRTPEVTCVVVDVSHEDPEVKFNWYVDGVEVHNAKTKPREEQYNSTYRVVSVLTVLHQDWLNGKEYKCKVSNKALPAPIEKTISKAKGQPREPQVYTLPPSRDELTKNQVSLTCLVKGFYPSDIAVEWESNGGCWMWAEECGGGQPENNYKTTPPVLDSDGSFFLYSKLTVDKSRWQQGNVFSCSVMHEALHNHYTQKSLSLSPGK
53.2 | 0.4 | L5 isolate with insertion SEQ ID NO: 445 (other) EPKSCDKTHTCPPCPAPELLGGPSVFLFPPKPKDTLMISRTPEVTCVVVDVSHEDPEVKFNWYVDGVEVHNAKTKPREEQYNSTYRVVSVLTVLHQDWLNGKEYKCKVSNKALPAPIEKTISKAKGQPREPQVYTLPPSRDELTKNQVSLTCLVKGFYPSDIAVEWESNGGCPLVRADCGGGQPENNYKTTPPVLDSDGSFFLYSKLTVDKSRWQQGNVFSCSVMHEALHNHYTQKSLSLSPGK
47 | 1.4 | L5 isolate with insertion SEQ ID NO: 462 (other) EPKSCDKTHTCPPCPAPELLGGPSVFLFPPKPKDTLMISRTPEVTCVVVDVSHEDPEVKFNWYVDGVEVHNAKTKPREEQYNSTYRVVSVLTVLHQDWLNGKEYKCKVSNKALPAPIEKTISKAKGQPREPQVYTLPPSRDELTKNQVSLTCLVKGFYPSDIAVEWESNGGCDWHRMKCGGGQPENNYKTTPPVLDSDGSFFLYSKLTVDKSRWQQGNVFSCSVMHEALHNHYTQKSLSLSPGK
53.2 | 0.3 | L5 isolate with insertion SEQ ID NO: 444 (other) EPKSCDKTHTCPPCPAPELLGGPSVFLFPPKPKDTLMISRTPEVTCVVVDVSHEDPEVKFNWYVDGVEVHNAKTKPREEQYNSTYRVVSVLTVLHQDWLNGKEYKCKVSNKALPAPIEKTISKAKGQPREPQVYTLPPSRDELTKNQVSLTCLVKGFYPSDIAVEWESNGGCHAPQWECGGGQPENNYKTTPPVLDSDGSFFLYSKLTVDKSRWQQGNVFSCSVMHEALHNHYTQKSLSLSPGK
48.2 | 1.8 | L5 isolate with insertion SEQ ID NO: 459 (other) EPKSCDKTHTCPPCPAPELLGGPSVFLFPPKPKDTLMISRTPEVTCVVVDVSHEDPEVKFNWYVDGVEVHNAKTKPREEQYNSTYRVVSVLTVLHQDWLNGKEYKCKVSNKALPAPIEKTISKAKGQPREPQVYTLPPSRDELTKNQVSLTCLVKGFYPSDIAVEWESNGGCPGHEFRCGGGQPENNYKTTPPVLDSDGSFFLYSKLTVDKSRWQQGNVFSCSVMHEALHNHYTQKSLSLSPGK
46.2 | 0.9 | L5 isolate with insertion SEQ ID NO: 464 (other) EPKSCDKTHTCPPCPAPELLGGPSVFLFPPKPKDTLMISRTPEVTCVVVDVSHEDPEVKFNWYVDGVEVHNAKTKPREEQYNSTYRVVSVLTVLHQDWLNGKEYKCKVSNKALPAPIEKTISKAKGQPREPQVYTLPPSRDELTKNQVSLTCLVKGFYPSDIAVEWESNGGCMMWKVNCGGGQPENNYKTTPPVLDSDGSFFLYSKLTVDKSRWQQGNVFSCSVMHEALHNHYTQKSLSLSPGK
53.2 | 0.4 | L5 isolate with insertion SEQ ID NO: 446 (other) EPKSCDKTHTCPPCPAPELLGGPSVFLFPPKPKDTLMISRTPEVTCVVVDVSHEDPEVKFNWYVDGVEVHNAKTKPREEQYNSTYRVVSVLTVLHQDWLNGKEYKCKVSNKALPAPIEKTISKAKGQPREPQVYTLPPSRDELTKNQVSLTCLVKGFYPSDIAVEWESNGGCMHNEEFCGGGQPENNYKTTPPVLDSDGSFFLYSKLTVDKSRWQQGNVFSCSVMHEALHNHYTQKSLSLSPGK
47.2 | 0.9 | L5 isolate with insertion SEQ ID NO: 461 (other) EPKSCDKTHTCPPCPAPELLGGPSVFLFPPKPKDTLMISRTPEVTCVVVDVSHEDPEVKFNWYVDGVEVHNAKTKPREEQYNSTYRVVSVLTVLHQDWLNGKEYKCKVSNKALPAPIEKTISKAKGQPREPQVYTLPPSRDELTKNQVSLTCLVKGFYPSDIAVEWESNGGCKWSMTKCGGGQPENNYKTTPPVLDSDGSFFLYSKLTVDKSRWQQGNVFSCSVMHEALHNHYTQKSLSLSPGK
54.7 | 0.6 | L5 isolate with insertion SEQ ID NO: 441 (other) EPKSCDKTHTCPPCPAPELLGGPSVFLFPPKPKDTLMISRTPEVTCVVVDVSHEDPEVKFNWYVDGVEVHNAKTKPREEQYNSTYRVVSVLTVLHQDWLNGKEYKCKVSNKALPAPIEKTISKAKGQPREPQVYTLPPSRDELTKNQVSLTCLVKGFYPSDIAVEWESNGGCEATMTWCGGGQPENNYKTTPPVLDSDGSFFLYSKLTVDKSRWQQGNVFSCSVMHEALHNHYTQKSLSLSPGK
51.1 | 0.4 | L5 isolate with insertion SEQ ID NO: 451 (other) EPKSCDKTHTCPPCPAPELLGGPSVFLFPPKPKDTLMISRTPEVTCVVVDVSHEDPEVKFNWYVDGVEVHNAKTKPREEQYNSTYRVVSVLTVLHQDWLNGKEYKCKVSNKALPAPIEKTISKAKGQPREPQVYTLPPSRDELTKNQVSLTCLVKGFYPSDIAVEWESNGGCNLGHMPCGGGQPENNYKTTPPVLDSDGSFFLYSKLTVDKSRWQQGNVFSCSVMHEALHNHYTQKSLSLSPGK
49.8 | 0.6 | L5 isolate with insertion SEQ ID NO: 456 (other) EPKSCDKTHTCPPCPAPELLGGPSVFLFPPKPKDTLMISRTPEVTCVVVDVSHEDPEVKFNWYVDGVEVHNAKTKPREEQYNSTYRVVSVLTVLHQDWLNGKEYKCKVSNKALPAPIEKTISKAKGQPREPQVYTLPPSRDELTKNQVSLTCLVKGFYPSDIAVEWESNGGCYPQKEICGGGQPENNYKTTPPVLDSDGSFFLYSKLTVDKSRWQQGNVFSCSVMHEALHNHYTQKSLSLSPGK
51.6 | 0.4 | L5 isolate with insertion SEQ ID NO: 449 (other) EPKSCDKTHTCPPCPAPELLGGPSVFLFPPKPKDTLMISRTPEVTCVVVDVSHEDPEVKFNWYVDGVEVHNAKTKPREEQYNSTYRVVSVLTVLHQDWLNGKEYKCKVSNKALPAPIEKTISKAKGQPREPQVYTLPPSRDELTKNQVSLTCLVKGFYPSDIAVEWESNGGCLQNLYVCGGGQPENNYKTTPPVLDSDGSFFLYSKLTVDKSRWQQGNVFSCSVMHEALHNHYTQKSLSLSPGK
52.4 | 1.2 | L5 isolate with insertion SEQ ID NO: 447 (other) EPKSCDKTHTCPPCPAPELLGGPSVFLFPPKPKDTLMISRTPEVTCVVVDVSHEDPEVKFNWYVDGVEVHNAKTKPREEQYNSTYRVVSVLTVLHQDWLNGKEYKCKVSNKALPAPIEKTISKAKGQPREPQVYTLPPSRDELTKNQVSLTCLVKGFYPSDIAVEWESNGGCMFETKWCGGGQPENNYKTTPPVLDSDGSFFLYSKLTVDKSRWQQGNVFSCSVMHEALHNHYTQKSLSLSPGK
